# From patent US10087225B2, “Formulation of MK2 inhibitor peptides” (MOERAE MATRIX, INC., priority 2015, dated 2018)
# Assays:
# Experiment in all cases: Kinase Profiling Assay
# Format in all cases: biochemical
# Conditions in all cases: for % activity: 100 μM
# EphB2(h) = molecular target: T1, EphB2(h) (Homo sapiens, UniProt P29323)
# T1 sequence (P29323 19-1055): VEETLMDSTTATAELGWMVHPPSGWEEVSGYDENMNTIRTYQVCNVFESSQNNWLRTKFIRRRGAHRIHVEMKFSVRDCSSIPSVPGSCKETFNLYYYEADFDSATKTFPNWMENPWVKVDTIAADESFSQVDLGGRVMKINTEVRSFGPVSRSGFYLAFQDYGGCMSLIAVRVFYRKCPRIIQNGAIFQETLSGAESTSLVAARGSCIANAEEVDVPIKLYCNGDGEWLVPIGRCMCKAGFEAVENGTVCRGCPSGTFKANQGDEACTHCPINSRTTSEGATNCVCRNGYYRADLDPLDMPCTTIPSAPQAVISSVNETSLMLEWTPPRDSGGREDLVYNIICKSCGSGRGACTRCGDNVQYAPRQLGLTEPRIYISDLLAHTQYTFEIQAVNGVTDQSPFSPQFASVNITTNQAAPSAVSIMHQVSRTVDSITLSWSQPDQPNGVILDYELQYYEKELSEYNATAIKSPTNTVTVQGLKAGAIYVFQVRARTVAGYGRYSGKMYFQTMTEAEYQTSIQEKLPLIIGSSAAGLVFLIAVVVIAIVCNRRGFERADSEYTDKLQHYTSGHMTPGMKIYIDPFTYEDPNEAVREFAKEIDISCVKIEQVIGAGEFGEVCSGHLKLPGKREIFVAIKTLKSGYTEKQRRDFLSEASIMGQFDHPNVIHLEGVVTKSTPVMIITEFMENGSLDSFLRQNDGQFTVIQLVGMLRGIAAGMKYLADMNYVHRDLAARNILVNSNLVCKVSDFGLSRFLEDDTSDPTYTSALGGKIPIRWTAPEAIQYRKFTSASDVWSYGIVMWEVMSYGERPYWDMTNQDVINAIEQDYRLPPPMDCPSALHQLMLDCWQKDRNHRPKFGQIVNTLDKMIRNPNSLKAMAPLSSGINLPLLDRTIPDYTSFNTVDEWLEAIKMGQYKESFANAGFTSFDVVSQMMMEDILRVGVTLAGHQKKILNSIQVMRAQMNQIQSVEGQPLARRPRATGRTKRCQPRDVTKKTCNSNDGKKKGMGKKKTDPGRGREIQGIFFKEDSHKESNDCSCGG
# ALK(h) = ALK(h) (Homo sapiens, UniProt Q9UM73)
# Sequence of ALK(h) (Q9UM73 19-1620): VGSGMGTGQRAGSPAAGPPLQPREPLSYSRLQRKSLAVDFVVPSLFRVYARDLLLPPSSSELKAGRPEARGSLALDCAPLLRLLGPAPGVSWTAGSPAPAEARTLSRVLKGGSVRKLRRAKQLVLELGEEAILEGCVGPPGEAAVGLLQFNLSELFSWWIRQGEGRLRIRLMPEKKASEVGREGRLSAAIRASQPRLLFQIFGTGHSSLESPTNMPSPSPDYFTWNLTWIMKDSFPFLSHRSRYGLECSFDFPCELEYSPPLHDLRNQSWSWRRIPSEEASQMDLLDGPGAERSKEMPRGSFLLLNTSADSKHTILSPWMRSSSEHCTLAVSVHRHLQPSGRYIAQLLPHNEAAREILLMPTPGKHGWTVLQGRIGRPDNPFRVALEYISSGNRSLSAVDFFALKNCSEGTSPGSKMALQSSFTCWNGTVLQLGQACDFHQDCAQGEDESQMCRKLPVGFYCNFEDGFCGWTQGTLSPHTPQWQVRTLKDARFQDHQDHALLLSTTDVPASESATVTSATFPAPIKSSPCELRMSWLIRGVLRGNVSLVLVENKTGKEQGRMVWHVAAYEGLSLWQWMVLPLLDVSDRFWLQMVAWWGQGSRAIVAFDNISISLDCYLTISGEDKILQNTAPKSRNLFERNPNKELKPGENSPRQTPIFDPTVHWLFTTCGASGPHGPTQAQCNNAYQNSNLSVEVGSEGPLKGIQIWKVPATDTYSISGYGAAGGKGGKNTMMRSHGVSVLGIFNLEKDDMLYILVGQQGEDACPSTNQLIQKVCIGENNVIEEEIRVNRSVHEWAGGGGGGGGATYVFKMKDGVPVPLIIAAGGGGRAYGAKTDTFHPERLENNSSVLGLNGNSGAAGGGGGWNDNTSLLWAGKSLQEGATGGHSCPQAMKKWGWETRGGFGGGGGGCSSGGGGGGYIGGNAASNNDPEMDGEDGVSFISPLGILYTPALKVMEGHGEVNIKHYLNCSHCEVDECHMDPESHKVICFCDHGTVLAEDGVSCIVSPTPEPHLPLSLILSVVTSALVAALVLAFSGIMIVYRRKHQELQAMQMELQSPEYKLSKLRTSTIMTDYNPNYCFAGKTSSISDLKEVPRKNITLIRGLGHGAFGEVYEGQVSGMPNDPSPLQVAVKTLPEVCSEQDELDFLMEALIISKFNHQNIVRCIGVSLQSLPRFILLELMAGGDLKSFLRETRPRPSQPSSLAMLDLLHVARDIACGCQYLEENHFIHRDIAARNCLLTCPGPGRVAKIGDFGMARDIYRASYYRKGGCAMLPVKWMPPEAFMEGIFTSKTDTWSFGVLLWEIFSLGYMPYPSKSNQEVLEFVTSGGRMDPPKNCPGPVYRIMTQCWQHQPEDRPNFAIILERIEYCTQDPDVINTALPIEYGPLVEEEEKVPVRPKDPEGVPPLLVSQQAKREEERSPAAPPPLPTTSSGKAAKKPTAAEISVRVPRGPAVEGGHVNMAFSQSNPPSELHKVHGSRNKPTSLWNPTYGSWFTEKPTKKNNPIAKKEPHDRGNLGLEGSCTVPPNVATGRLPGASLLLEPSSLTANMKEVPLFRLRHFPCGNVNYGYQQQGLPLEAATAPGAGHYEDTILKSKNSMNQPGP
# ARK5(h) = molecular target: T2, ARK5(h) (Homo sapiens, UniProt O60285)
# T2 sequence (O60285 1-661): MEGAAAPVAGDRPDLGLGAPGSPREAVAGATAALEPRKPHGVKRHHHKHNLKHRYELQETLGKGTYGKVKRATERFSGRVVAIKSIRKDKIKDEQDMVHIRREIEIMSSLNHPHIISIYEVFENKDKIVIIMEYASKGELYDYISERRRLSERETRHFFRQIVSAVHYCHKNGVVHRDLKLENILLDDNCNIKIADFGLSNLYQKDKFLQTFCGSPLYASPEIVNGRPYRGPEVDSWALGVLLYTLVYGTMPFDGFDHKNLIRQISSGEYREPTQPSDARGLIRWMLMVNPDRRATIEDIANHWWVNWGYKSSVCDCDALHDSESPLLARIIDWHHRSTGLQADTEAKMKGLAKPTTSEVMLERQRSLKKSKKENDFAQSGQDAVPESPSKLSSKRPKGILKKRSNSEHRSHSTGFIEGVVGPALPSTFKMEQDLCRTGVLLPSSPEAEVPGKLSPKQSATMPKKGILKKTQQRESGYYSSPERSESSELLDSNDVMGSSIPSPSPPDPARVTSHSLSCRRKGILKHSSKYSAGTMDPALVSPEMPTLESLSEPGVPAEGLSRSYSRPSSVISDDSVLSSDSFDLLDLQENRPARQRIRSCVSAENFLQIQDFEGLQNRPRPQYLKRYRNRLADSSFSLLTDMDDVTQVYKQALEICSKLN
# BrSK1(h) = molecular target: T3, BrSK1(h) (Homo sapiens, UniProt Q8TDC3)
# T3 sequence (Q8TDC3 1-778): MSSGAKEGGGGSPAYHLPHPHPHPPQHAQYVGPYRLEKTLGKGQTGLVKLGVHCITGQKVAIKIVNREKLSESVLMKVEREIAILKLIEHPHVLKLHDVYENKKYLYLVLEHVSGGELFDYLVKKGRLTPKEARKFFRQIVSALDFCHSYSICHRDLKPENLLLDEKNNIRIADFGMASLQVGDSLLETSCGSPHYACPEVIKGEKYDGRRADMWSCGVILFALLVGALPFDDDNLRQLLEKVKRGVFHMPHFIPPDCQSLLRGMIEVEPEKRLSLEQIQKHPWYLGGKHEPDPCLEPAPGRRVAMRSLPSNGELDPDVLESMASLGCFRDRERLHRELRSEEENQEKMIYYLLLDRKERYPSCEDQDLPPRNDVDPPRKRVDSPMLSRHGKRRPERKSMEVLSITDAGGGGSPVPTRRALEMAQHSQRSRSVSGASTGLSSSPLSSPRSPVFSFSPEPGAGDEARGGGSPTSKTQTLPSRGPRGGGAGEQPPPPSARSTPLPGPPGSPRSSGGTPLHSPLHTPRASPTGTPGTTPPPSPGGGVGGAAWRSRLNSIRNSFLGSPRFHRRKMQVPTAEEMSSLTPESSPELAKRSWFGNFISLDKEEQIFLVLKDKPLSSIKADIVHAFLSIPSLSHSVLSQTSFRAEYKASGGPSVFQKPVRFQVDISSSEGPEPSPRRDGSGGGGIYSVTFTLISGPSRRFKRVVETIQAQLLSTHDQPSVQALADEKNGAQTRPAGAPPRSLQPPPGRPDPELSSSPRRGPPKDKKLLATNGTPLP
# MAPKAP-K2(h) = MAPKAP-K2(h) (Homo sapiens, UniProt P49137)
# Sequence of MAPKAP-K2(h) (P49137 whole entry): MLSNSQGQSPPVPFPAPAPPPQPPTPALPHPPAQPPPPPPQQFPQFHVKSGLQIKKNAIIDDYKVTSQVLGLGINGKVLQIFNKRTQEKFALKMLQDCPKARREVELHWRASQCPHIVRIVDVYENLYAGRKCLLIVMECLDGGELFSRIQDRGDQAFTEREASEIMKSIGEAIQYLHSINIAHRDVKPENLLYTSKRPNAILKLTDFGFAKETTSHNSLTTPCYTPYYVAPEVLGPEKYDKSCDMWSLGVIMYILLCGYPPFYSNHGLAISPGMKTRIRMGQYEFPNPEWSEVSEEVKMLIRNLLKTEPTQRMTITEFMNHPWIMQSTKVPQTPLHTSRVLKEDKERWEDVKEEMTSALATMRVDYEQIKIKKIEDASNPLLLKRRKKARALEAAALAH
# STK33(h) = STK33(h) (Homo sapiens, UniProt Q9BYT3)
# Sequence of STK33(h) (Q9BYT3 whole entry): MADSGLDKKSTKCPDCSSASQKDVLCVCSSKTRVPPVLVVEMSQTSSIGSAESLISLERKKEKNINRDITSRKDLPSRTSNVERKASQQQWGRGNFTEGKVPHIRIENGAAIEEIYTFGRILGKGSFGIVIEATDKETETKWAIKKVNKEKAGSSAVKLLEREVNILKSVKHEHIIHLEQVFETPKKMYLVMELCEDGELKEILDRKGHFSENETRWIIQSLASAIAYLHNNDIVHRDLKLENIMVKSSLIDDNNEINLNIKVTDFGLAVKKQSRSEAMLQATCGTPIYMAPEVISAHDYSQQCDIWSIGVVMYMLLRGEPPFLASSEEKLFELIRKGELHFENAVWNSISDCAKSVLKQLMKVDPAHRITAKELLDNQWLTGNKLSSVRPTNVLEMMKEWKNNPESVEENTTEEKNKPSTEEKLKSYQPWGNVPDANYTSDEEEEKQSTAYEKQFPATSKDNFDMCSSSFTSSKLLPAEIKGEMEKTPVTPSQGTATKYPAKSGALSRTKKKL
Substance,activity at 100 µM (EphB2(h)) [%],activity at 100 µM (ALK(h)) [%],activity at 100 µM (ARK5(h)) [%],activity at 100 µM (BrSK1(h)) [%],activity at 100 µM (MAPKAP-K2(h)) [%],activity at 100 µM (STK33(h)) [%],% activity (EphB2(h)) [%],% activity (ALK(h)) [%],% activity (ARK5(h)) [%],% activity (BrSK1(h)) [%],% activity (MAPKAP-K2(h)) [%],% activity (STK33(h)) [%]
H-YARAAARQARAKALARQLGVAA-OH [MMI-0100],68,118,108,100,19,99,,,,,,
HRRIKAWLKKIKALARQLGVAA (Mammalian) [MMI-0500],,,,,,,70,12,20,72,9,16
YARAAARQARAKALNRQLGVA (Mammalian) [MMI-0200],,,,,,,128,95,93,93,35,98
